Target: prolactin-receptor on NB2-11 cells (rat lymphoma cells) (rat (NB2-11 rat lymphoma cells)) (UniProt P05710)
Assay: cell-based or functional assay

UniProt P05710, sequence (P05710 20-610): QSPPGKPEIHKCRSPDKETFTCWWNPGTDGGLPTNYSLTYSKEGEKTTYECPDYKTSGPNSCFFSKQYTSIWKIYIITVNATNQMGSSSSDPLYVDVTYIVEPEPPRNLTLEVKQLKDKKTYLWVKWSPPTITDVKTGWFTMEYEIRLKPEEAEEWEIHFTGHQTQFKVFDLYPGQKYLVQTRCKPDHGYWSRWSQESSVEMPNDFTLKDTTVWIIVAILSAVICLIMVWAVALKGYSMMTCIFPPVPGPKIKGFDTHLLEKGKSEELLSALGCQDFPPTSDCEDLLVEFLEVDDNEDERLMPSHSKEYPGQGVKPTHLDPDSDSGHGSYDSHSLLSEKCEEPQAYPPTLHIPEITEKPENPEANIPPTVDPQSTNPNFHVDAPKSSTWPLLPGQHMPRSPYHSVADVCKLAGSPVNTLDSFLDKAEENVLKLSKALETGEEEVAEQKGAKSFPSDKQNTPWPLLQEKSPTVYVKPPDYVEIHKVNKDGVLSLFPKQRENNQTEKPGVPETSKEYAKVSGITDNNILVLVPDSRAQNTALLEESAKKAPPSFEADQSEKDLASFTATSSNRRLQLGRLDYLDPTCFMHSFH

Substance “CTP modified hGH (hGH with one CTP at the N terminus and two CTP at the C terminus, expressed in HeLa cells) (from UniProt P0DN86 138-165; P01241 27-217; P0DN86 138-165; P0DN86 138-165)” has an NB2-11 cell proliferation, WST formazan absorbance (OD), dose response 0.039 of 593, an NB2-11 cell proliferation, WST formazan absorbance (OD), dose response 0.059 of 684 and an NB2-11 cell proliferation, WST formazan absorbance (OD), dose response 0.088 of 858. For the same substance, the NB2-11 cell proliferation, WST formazan absorbance (OD), dose response 0.132 was 1050, the NB2-11 cell proliferation, WST formazan absorbance (OD), dose response 0.198 was 1290 and the NB2-11 cell proliferation, WST formazan absorbance (OD), dose response 0.296 was 1570. For the same substance, the NB2-11 cell proliferation, WST formazan absorbance (OD), dose response 0.444 was 1800, the NB2-11 cell proliferation, WST formazan absorbance (OD), dose response 0.667 was 1970 and the NB2-11 cell proliferation, WST formazan absorbance (OD), dose response 1 was 2110.

Source: patent publication US20180086816A1
